Series [1] has as its target T1, rPdxR (Sco1417) (Streptomyces coelicolor A3(2) M145) (UniProt Q9RKX6).
T1 sequence: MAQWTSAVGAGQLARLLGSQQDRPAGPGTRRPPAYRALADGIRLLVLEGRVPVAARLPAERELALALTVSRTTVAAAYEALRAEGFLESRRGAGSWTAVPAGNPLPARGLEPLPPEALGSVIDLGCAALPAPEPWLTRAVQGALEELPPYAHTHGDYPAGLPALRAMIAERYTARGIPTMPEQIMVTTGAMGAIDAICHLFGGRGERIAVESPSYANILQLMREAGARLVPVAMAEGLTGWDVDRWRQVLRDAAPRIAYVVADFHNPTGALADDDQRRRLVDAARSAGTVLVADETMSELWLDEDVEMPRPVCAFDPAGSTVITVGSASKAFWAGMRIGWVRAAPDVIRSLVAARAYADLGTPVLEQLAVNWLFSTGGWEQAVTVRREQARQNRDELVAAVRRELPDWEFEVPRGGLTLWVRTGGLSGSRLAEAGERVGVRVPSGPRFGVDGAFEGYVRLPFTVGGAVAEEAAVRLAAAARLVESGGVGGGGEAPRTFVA
Description: competition.

Series [2] concerns the target T2, rPdxR (Sco1417) (Streptomyces coelicolor A3(2) M145, UniProt Q9RKX6).
T2 sequence: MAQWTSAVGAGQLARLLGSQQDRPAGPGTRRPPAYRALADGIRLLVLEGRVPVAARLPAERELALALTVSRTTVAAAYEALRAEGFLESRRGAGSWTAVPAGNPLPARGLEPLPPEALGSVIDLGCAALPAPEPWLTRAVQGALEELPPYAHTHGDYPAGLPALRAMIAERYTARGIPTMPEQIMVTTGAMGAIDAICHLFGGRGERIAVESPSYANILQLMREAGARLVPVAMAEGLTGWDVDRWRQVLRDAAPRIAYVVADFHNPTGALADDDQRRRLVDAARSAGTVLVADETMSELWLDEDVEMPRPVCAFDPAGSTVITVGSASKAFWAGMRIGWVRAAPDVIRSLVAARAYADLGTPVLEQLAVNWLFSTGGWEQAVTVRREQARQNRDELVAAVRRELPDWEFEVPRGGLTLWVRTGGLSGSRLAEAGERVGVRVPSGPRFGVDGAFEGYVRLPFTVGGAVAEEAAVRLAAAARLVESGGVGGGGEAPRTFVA
Description: EMSA. Background: In EMSA bound probe runs differently from free probe, usually more slowly.

Series [3] has as its target T2, rPdxR (Sco1417). As to the kind of experiment: EMSA. This is another data set of the same source.

Read-outs that look alike come from different tables or passages of the source.

“ACTGCGCCATGGAAATCAGTCCACCTTCCCCAAATTGGCCATGGTTGACTCTTCTTCTGAAGCCACAGGGTGTCATGTGGCAGTCCACTACCACCACCCCAGGGGGCACTTCTTGTCCAGGCAGTCCAGACAGTCGAGGCAATCCGGGCAGTCCGGATGGTCCGGGCGACTCGCGCGGCGGCTGACGCAGCTCTACGGCGGTCTCGTCCTGTACGGAGCGAGTTCGGCGCTGCTGGTCAGGTCCGGGCTCGGCCTCGAACCGTGGAACGTGCTGCACCAG (double strand) [pdxRp]”: the binding result in series [1] was “binds”.
Same read-out and setting: for “TGCTGGACACGGGTACCTCACTGGGGAGAAGGGGGGTTGTGCAGCAACGAGGAAACGTGAGGTGAGCAGGCCACAGCAAGGGCCAATGAGAAGGCGGTGGATCGTTTTCGTCCCCCGGGCGCTACGCCGCCCGCTCCACCAGGGCGGCCGGCGACTCGTCGTCCATCTCGAAGGCCAGCGGGAAGGGCGCGTGCCCGGCGAGGCGGAACCAGCGGACCTTGCGGTGCTCGCGCAGCCTGCGGGCCGCCCCCACCGCGTCGTTGTGGAAGCGGCGG (double strand) [pdxSTp]” the value was “binds”.

B1: ST2b (dsDNA)
DNA 1: CTTCTCAAAAACCCTTGCTGTGGCCTGCTC
DNA 2: GAGCAGGCCACAGCAAGGGTTTTTGAGAAG
As for B1, the binding result in series [2] is given as “no binding”.

B2: ST2a (dsDNA)
DNA 1: CTTCTCATTGGCCCTTGCTAAAACCTGCTC
DNA 2: GAGCAGGTTTTAGCAAGGGCCAATGAGAAG
For B2, in series [2], the binding result was “no binding”.

B3: ST2 (dsDNA)
DNA 1: CTTCTCATTGGCCCTTGCTGTGGCCTGCTC
DNA 2: GAGCAGGCCACAGCAAGGGCCAATGAGAAG
In the case of B3, in series [3], the binding result is recorded as “binds”.

B4: ST (dsDNA)
DNA 1: ACGAAAACGATCCACCGCCTTCTCATTGGCCCTTGCTGTGGCCTGCT
DNA 2: AGCAGGCCACAGCAAGGGCCAATGAGAAGGCGGTGGATCGTTTTCGT
Turning to B4, in series [3], the binding result is on record as “binds”.

B5: R2 (dsDNA)
DNA 1: TCAACCATGGCCAATTTGGGGAAGGTGGACTGATTT
DNA 2: AAATCAGTCCACCTTCCCCAAATTGGCCATGGTTGA
Take B5: the binding result in series [3] is given as “binds”.

B6: R1 (dsDNA)
DNA 1: TGGGGTGGTGGTAGTGGACTGCCACATGACACCCTGTGGCTTCAGAA
DNA 2: TTCTGAAGCCACAGGGTGTCATGTGGCAGTCCACTACCACCACCCCA
For the molecule B6, the binding result in series [3] is recorded as “binds”.

These data come from paper PMC12220430.
